Assay results: patent US20140322196A1

Legend:
Assay in all cases: cell-based or functional assay
[1] = biological target: Hemagglutinin (HA) of Influenza A virus A/Parma/24/09 (Brisbane-like) (oseltamivir-resistant) H1N1 (Influenza A virus A/Parma/24/09 H1N1)
[2] = biological target: Hemagglutinin (HA) of Influenza A virus A/Solomon 3/2006 H1N1 (inactivated subunits, vaccine) (Influenza A virus A/Solomon 3/2006 H1N1)
[3] = biological target: Hemagglutinin (HA) of Influenza A virus A/Wisconsin/67/2005 H3N2 (inactivated subunits, vaccine) (Influenza A virus A/Wisconsin/67/2005 H3N2)

| Binder | activity on viral hemagglutination (HI) [1] [nM] | activity on viral hemagglutination (HI) [2] [pM] | activity on viral hemagglutination (HI) [3] [pM] |
| --- | --- | --- | --- |
| bLf C-lobe (aa 345-689) (protein) VVWCAVGPEEQKKCQQWSQQSGQNVTCATASTTDDCIVLVLKGEADALNLDGGYIYTAGKCGLVPVLAENRKSSKHSSLDCVLRPTEGYLAVAVVKKANEGLTWNSLKDKKSCHTAVDRTAGWNIPMGLIVNQTGSCAFDEFFSQSCAPGADPKSRLCALCAGDDQGLDKCVPNSKEKYYGYTGAFRCLAEDVGDVAFVKNDTVWENTNGESTADWAKNLNREDFRLLCLDGTRKPVTEAQSCHLAVAPNHAVVSRSDRAAHVKQVLLHQQALFGKNGKNCPDKFCLFKSETKNLLFNDNTECLAKLGGRPTYEEYLGTEYVTAIANLKKCSTSPLLEACAFLTR | 10 | 5 | 1.2 |
| bLf C-lobe (aa 285-689) (protein) SFQLFGSPPGQRDLLFKDSALGFLRIPSKVDSALYLGSRYLTTLKNLRETAEEVKARYTRVVWCAVGPEEQKKCQQWSQQSGQNVTCATASTTDDCIVLVLKGEADALNLDGGYIYTAGKCGLVPVLAENRKSSKHSSLDCVLRPTEGYLAVAVVKKANEGLTWNSLKDKKSCHTAVDRTAGWNIPMGLIVNQTGSCAFDEFFSQSCAPGADPKSRLCALCAGDDQGLDKCVPNSKEKYYGYTGAFRCLAEDVGDVAFVKNDTVWENTNGESTADWAKNLNREDFRLLCLDGTRKPVTEAQSCHLAVAPNHAVVSRSDRAAHVKQVLLHQQALFGKNGKNCPDKFCLFKSETKNLLFNDNTECLAKLGGRPTYEEYLGTEYVTAIANLKKCSTSPLLEACAFLTR | 24 | 5 | 1.6 |
